Here are results for 1 protein from FireProtDB (doi:10.1007/s00792-015-0748-z).

For this data set the following is noted: Pyrococcus furiosus (strain ATCC 43587 / DSM 3638 / JCM 8422 / Vc1), 60 °C, GdnHCl, Fluorescence, Tris, NaCl, transition: 2, reversible: yes, whole UniProt chain shown.

B1: L-asparaginase wild type, Q8TZE8 (protein)
chain: MKILLIGMGGTIASVKGENGYEASLSVKEVLDIAGIKDCEDCDFLDLKNVDSTLIQPEDWVDLAETLYKNVKKYDGIIVTHGTDTLAYTSSMISFMLRNPPIPIVFTGSMIPATEENSDAPLNLQTAIKFATSGIRGVYVAFNGKVMLGVRTSKVRTMSRDAFESINYPIIAELRGEDLVVNFIPKFNNGEVTLDLRHDPKVLVIKLIPGLSGDIFRAAVELGYRGIVIEGYGAGGIPYRGSDLLQTIEELSKEIPIVMTTQAMYDGVDLTRYKVGRLALRAGVIPAGDMTKEATVTKLMWILGHTNNVEEIKVLMRKNLVGELRD
B1: for the setting “pH 8”, the denaturant m value is 5.12 kcal/mol/M, the “denaturant midpoint (higher = more stable)” value was determined as 3.04 M and the unfolding free energy was found to be 15.7 kcal/mol. For the same protein, under “pH 9”, the denaturant m value amounted to 0.9 kcal/mol/M, the “denaturant midpoint (higher = more stable)” value turned out to be 1.99 M and the unfolding free energy worked out at 1.6 kcal/mol.
